# Data taken from PMC13181292 (2026).
# Assays:
# [1] = molecular target: CLEC-2 C-type lectin-like domain (Mus musculus) (UniProt Q9JL99); experiment: SPR; conditions: cited from earlier work
# [2] = molecular target: CLEC-2 C-type lectin-like domain (Homo sapiens) (UniProt Q9P126); experiment: SPR; conditions: cited from earlier work
# [3] = molecular target: the molecule itself; experiment: divalent nanobody Nb2-2 (100 nM)
# CLEC-2 C-type lectin-like domain (from UniProt Q9P126), sequence (Q9P126 109-217): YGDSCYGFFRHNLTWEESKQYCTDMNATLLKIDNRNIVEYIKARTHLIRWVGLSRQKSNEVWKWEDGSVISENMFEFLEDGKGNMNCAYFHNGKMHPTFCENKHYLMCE
# CLEC-2 C-type lectin-like domain (Homo sapiens), sequence (Q9P126 109-217): as above
# CLEC-2 C-type lectin-like domain (from UniProt Q9JL99), sequence (Q9JL99 109-217): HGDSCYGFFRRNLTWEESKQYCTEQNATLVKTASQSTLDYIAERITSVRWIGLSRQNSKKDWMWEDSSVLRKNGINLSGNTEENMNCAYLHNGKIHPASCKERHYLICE
# CLEC-2 C-type lectin-like domain (Mus musculus), sequence (Q9JL99 109-217): as above
molecule,measurement,setting,value
CLEC-2 C-type lectin-like domain (from UniProt Q9JL99),Kd,[1],499 nM
CLEC-2 C-type lectin-like domain (from UniProt Q9P126),Kd,[2],278 nM
"SNAP-tag-GPVI and HaloTag-GPVI coexpressed on CHO-K1 cells (receptor, SNAP-tag labeled with SNAP-Surface Alexa Fluor-647; HaloTag labeled with Janelia Fluor-549) QSGPLPKPSLQALPSSLVPLEKPVTLRCQGPPGVDLYRLEKLSSSRYQDQAVLFIPAMKRSLAGRYRCSYQNGSLWSLPSDQLELVATGVFAKPSLSAQPGPAVSSGGDVTLQCQTRYGFDQFALYKEGDPAPYKNPERWYRASFPIITVTAAHSGTYRCYSFSSRDPYLWSAPSDPLELVVTGTSVTPSRLPTEPPSPVAEFSEATAELTVSFTNEVFTTETSRSITASPKESDSPAGPARQYYTKGNLVRICLGAVILIILAGFLAEDWHSRRKRLRHRGRAVQRPLPPLPPLPLTRKSNGGQDGGRQDVHSRGLCS",koff,[3],0.95 s⁻¹
